B1: HRI-ΔN-ΔpCC (Δ1-143, Δ620-630), untreated (phosphorylated as purified) (domain or fragment, human, UniProt Q9BQI3 144-619, looked up)
chain: SRIQKIRSREVALEAQTSRYLNEFEELAILGKGGYGRVYKVRNKLDGQYYAIKKILIKGATKTVCMKVLREVKVLAGLQHPNIVGYHTAWIEHVHVIQPRADRAAIELPSLEVLSDQEEDREQCGVKNDESSSSSIIFAEPTPEKEKRFGESDTENQNNKSVKYTTNLVIRESGELESTLELQENGLAGLSASSIVEQQLPLRRNSHLEESFTSTEESSEENVNFLGQTEAQYHLMLHIQMQLCELSLWDWIVERNKRGREYVDESACPYVMANVATKIFQELVEGVFYIHNMGIVHRDLKPRNIFLHGPDQQVKIGDFGLACTDILQKNTDWTNRNGKRTPTHTSRVGTCLYASPEQLEGSEYDAKSDMYSLGVVLLELFQPFGTEMERAEVLTGLRTGQLPESLRKRCPVQAKYIQHLTRRNSSQRPSAIQLLQSELFQNSGNVNLTLQMKIIEQEKEIAELKKQLNLLSQDKG
modifications: autophosphorylated as purified from E. coli (sites not given)
notes: The limits 144-619 follow from the printed deletions Δ1-143 and Δ620-630; also called His-HRI-ΔN-ΔpCC; untreated HRI-ΔN-ΔpCC
B2: HRI-ΔN-ΔpCC (Δ1-143, Δ620-630), dephosphorylated with lambda phosphatase (domain or fragment, human, UniProt Q9BQI3 144-619, looked up)
chain: B1 chain
notes: Human HRI, UniProt Q9BQI3, residues 144-619 (Δ1-143, Δ620-630); phosphate groups removed with lambda phosphatase; The limits 144-619 follow from the printed deletions Δ1-143 and Δ620-630; also called dephosphorylated HRI-ΔN-ΔpCC; source: E. coli BL21-Rosetta(DE3), purified, incubated with lambda phosphatase, then Superdex 200

Columns and labels:
[1] = biological target: T1, heme-regulated inhibitor (HRI) (Homo sapiens, UniProt Q9BQI3); experiment: γ[…] ATP filter-paper kinase assay with eIF2α peptide; supported by DSF (~[…] °C shift) and DSC stabilization; assay type: biochemical
T1 construct: gene EIF2AK1; HRI-FL (full-length)

[2] = biological target: the molecule itself; experiment: AUC; sedimentation velocity; samples at an absorbance of 0.5 at 280 nm, 20 °C, 42,000 rpm, c(s) distribution model in SEDFIT; self-association (oligomeric state from fit MW)

T1 sequence (Q9BQI3 whole entry): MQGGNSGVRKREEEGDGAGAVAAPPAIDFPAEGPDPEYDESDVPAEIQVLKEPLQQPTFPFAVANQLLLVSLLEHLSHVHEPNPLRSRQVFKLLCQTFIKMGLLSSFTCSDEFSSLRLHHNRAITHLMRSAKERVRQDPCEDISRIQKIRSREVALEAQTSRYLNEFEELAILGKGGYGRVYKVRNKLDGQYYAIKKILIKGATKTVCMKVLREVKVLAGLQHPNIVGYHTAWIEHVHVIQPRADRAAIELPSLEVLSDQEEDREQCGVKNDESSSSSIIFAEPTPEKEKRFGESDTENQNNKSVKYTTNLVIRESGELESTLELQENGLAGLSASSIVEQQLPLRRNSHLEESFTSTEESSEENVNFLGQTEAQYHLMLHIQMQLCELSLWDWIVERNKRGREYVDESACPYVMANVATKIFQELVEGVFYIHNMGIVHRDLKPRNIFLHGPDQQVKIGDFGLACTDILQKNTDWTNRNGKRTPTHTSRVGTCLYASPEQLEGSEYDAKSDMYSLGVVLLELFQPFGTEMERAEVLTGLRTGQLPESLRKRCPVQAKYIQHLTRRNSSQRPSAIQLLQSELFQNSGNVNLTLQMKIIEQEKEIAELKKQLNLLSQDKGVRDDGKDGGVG

| Molecule | IC50 [1] [nM] | stoichiometry N [2] |
| --- | --- | --- |
| O=c1c(O)c(-c2ccc(O)c(O)c2)oc2cc(O)cc(O)c12 [quercetin] | 1520 | – |
| B1 | – | 2 |
| B2 | – | 2 |

Reference: article PMC9520036, “The heme-regulated inhibitor kinase requires dimerization for heme-sensing activity” (The Journal of Biological Chemistry, 2022)
